From patent US20230395193A1 (priority 2020, published 2023)

B1: M-Q8TCJ2 (protein, UniProt Q8TCJ2 2-826, looked up)
Dolichyl-diphosphooligosacchar …: AEPSAPESKHKSSLNSSPWSGLMALGNSRHGHHGPGAQCAHKAAGGAAPPKPAPAGLSGGLSQPAGWQSLLSFTILFLAWLAGFSSRLFAVIRFESIIHEFDPWFNYRSTHHLASHGFYEFLNWFDERAWYPLGRIVGGTVYPGLMITAGLIHWILNTLNITVHIRDVCVFLAPTFSGLTSISTFLLTRELWNQGAGLLAACFIAIVPGYISRSVAGSFDNEGIAIFALQFTYYLWVKSVKTGSVFWTMCCCLSYFYMVSAWGGYVFIINLIPLHVFVLLLMQRYSKRVYIAYSTFYIVGLILSMQIPFVGFQPIRTSEHMAAAGVFALLQAYAFLQYLRDRLTKQEFQTLFFLGVSLAAGAVFLSVIYLTYTGYIAPWSGRFYSLWDTGYAKIHIPIIASVSEHQPTTWVSFFFDLHILVCTFPAGLWFCIKNINDERVFVALYAISAVYFAGVMVRLMLTLTPVVCMLSAIAFSNVFEHYLGDDMKRENPPVEDSSDEDDKRNQGNLYDKAGKVRKHATEQEKTEEGLGPNIKSIVTMLMLMLLMMFAVHCTWVTSNAYSSPSVVLASYNHDGTRNILDDFREAYFWLRQNTDEHARVMSWWDYGYQIAGMANRTTLVDNNTWNNSHIALVGKAMSSNETAAYKIMRTLDVDYVLVIFGGVIGYSGDDINKFLWMVRIAEGEHPKDIRESDYFTPQGEFRVDKAGSPTLLNCLMYKMSYYRFGEMQLDFRTPPGFDRTRNAEIGNKDIKFKHLEEAFTSEHWLVRIYKVKAPDNRETLDHKPRVTNIFPKQKYLSKKTTKRKRGYIKNKLVFKKGKKISKKTV
B2: M-Q8WUD6 (protein, UniProt Q8WUD6 2-406, looked up)
Cholinephosphotransferase 1: AAGAGAGSAPRWLRALSEPLSAAQLRRLEEHRYSAAGVSLLEPPLQLYWTWLLQWIPLWMAPNSITLLGLAVNVVTTLVLISYCPTATEEAPYWTYLLCALGLFIYQSLDAIDGKQARRTNSCSPLGELFDHGCDSLSTVFMAVGASIAARLGTYPDWFFFCSFIGMFVFYCAHWQTYVSGMLRFGKVDVTEIQIALVIVFVLSAFGGATMWDYTIPILEIKLKILPVLGFLGGVIFSCSNYFHVILHGGVGKNGSTIAGTSVLSPGLHIGLIIILAIMIYKKSATDVFEKHPCLYILMFGCVFAKVSQKLVVAHMTKSELYLQDTVFLGPGLLFLDQYFNNFIDEYVVLWMAMVISSFDMVIYFSALCLQISRHLHLNIFKTACHQAPEQVQVLSSKSHQNNMD
B3: M-Q96AA3 (protein, UniProt Q96AA3 1-541, looked up)
Man(5)GlcNAc(2)-PP-dolichol …: MGSQEVLGHAARLASSGLLLQVLFRLITFVLNAFILRFLSKEIVGVVNVRLTLLYSTTLFLAREAFRRACLSGGTQRDWSQTLNLLWLTVPLGVFWSLFLGWIWLQLLEVPDPNVVPHYATGVVLFGLSAVVELLGEPFWVLAQAHMFVKLKVIAESLSVILKSVLTAFLVLWLPHWGLYIFSLAQLFYTTVLVLCYVIYFTKLLGSPESTKLQTLPVSRITDLLPNITRNGAFINWKEAKLTWSFFKQSFLKQILTEGERYVMTFLNVLNFGDQGVYDIVNNLGSLVARLIFQPIEESFYIFFAKVLERGKDATLQKQEDVAVAAAVLESLLKLALLAGLTITVFGFAYSQLALDIYGGTMLSSGSGPVLLRSYCLYVLLLAINGVTECFTFAAMSKEEVDRYNFVMLALSSSFLVLSYLLTRWCGSVGFILANCFNMGIRITQSLCFIHRYYRRSPHRPLAGLHLSPVLLGTFALSGGVTAVSEVFLCCEQGWPARLAHIAVGAFCLGATLGTAFLTETKLIHFLRTQLGVPRRTDKMT
modifications: interaction partner of viral M protein
B4: M-Q96ER3 (protein, UniProt Q96ER3 1-474, looked up)
Protein SAAL1: MDRNPSPPPPGRDKEEEEEVAGGDCIGSTVYSKHWLFGVLSGLIQIVSPENTKSSSDDEEQLTELDEEMENEICRVWDMSMDEDVALFLQEFNAPDIFMGVLAKSKCPRLREICVGILGNMACFQEICVSISSDKNLGQVLLHCLYDSDPPTLLETSRLLLTCLSQAEVASVWVERIQEHPAIYDSICFIMSSSTNVDLLVKVGEVVDKLFDLDEKLMLEWVRNGAAQPLDQPQEESEEQPVFRLVPCILEAAKQVRSENPEWLDVYMHILQLLTTVDDGIQAIVHCPDTGKDIWNLLFDLVCHEFCQSDDPPIILQEQKTVLASVFSVLSAIYASQTEQEYLKIEKVDLPLIDSLIRVLQNMEQCQKKPENSAESNTEETKRTDLTQDDFHLKILKDILCEFLSNIFQALTKETVAQGVKEGQLSKQKCSSAFQNLLPFYSPVVEDFIKILREVDKALADDLEKNFPSLKVQT
modifications: host interactor of M
B5: M-Q96HR9 (protein, UniProt Q96HR9 1-211, looked up)
Receptor expression-enhancing …: MDGLRQRVEHFLEQRNLVTEVLGALEAKTGVEKRYLAAGAVTLLSLYLLFGYGASLLCNLIGFVYPAYASIKAIESPSKDDDTVWLTYWVVYALFGLAEFFSDLLLSWFPFYYVGKCAFLLFCMAPRPWNGALMLYQRVVRPLFLRHHGAVDRIMNDLSGRALDAAAGITRNVLQVLARSRAGITPVAVAGPSTPLEADLKPSQTPQPKDK

tested on: SARS-CoV-1, MERS-CoV and SARS-CoV-2 proteins in HEK293T cells; design: species or system human

| Molecule | MIST_MERS | MIST_SARS1 | MIST_SARS2 | Saint_MERS | Saint_SARS1 | Saint_SARS2 |
| --- | --- | --- | --- | --- | --- | --- |
| B1 | 0 | 0.991 | 0.01779 | 0 | 1 | 0 |
| B2 | 0 | 0.8979 | 0.636 | 0 | 0.98 | 0.65 |
| B3 | 0 | 0.809 | 0.5513 | 0 | 0.95 | 0.98 |
| B4 | 0 | 0.3763 | 0.7695 | 0 | 0.98 | 1 |
| B5 | 0 | 0 | 0.9557 | 0 | 0 | 0.65 |
